Source: publication PMC8849298, “Structure of ATP synthase from ESKAPE pathogen Acinetobacter baumannii” (Science Advances, 2022)

T1: A. baumannii F1Fo-ATP synthase γ-subunit (Acinetobacter baumannii ATCC 17978 …, UniProt A3M143 1-289)
T1 construct: ATP synthase subunit gamma, Acinetobacter baumannii ATCC 17978; source: endogenous, A. baumannii ATCC 17978 membranes
T1 sequence (looked up): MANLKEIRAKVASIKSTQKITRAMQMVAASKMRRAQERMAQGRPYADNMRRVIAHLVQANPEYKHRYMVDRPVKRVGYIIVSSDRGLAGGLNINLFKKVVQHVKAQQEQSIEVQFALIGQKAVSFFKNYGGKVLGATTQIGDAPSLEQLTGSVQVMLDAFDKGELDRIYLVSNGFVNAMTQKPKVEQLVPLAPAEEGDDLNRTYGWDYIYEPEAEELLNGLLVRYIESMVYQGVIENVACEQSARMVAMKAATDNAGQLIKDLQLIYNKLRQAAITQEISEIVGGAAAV

B1: A. baumannii F1Fo-ATP synthase β-subunit, StrepII-tagged (natural protein, Acinetobacter baumannii, UniProt A3M144 1-464, looked up)
chain: MSSGRIIQIIGAVIDVEFERTSVPKIYDALQVDGTETTLEVQQQLGDGVVRTIAMGSTEGLKRGLTVTSTNAPISVPVGTATLGRIMDVLGRPIDEAGPVATEERLPIHRQAPSYAEQAASTDLLETGIKVIDLLCPFAKGGKVGLFGGAGVGKTVNMMELINNIAKAHSGLSVFAGVGERTREGNDFYHEMKDSNVLDKVAMVYGQMNEPPGNRLRVALTGLTMAEYFRDEKDENGKGRDVLLFVDNIYRYTLAGTEVSALLGRMPSAVGYQPTLAEEMGVLQERITSTKSGSITSIQAVYVPADDLTDPSPATTFAHLDATVVLSRDIASSGIYPAIDPLDSTSRQLDPLVVGQEHYEIARAVQNVLQRYKELKDIIAILGMDELAEEDKLVVYRARKIQRFFSQPFHVAEVFTGAPGKLVPLKETIRGFKGLLAGEYDHIPEQAFYMVGGIDEVIAKAEKL
notes: ATP synthase subunit beta, Acinetobacter baumannii; gene at 3815454-3814060 of GenBank CP053098.1, amplified from genomic DNA with a StrepII tag coded at the 5' end; Three copies stand in the complex; also called βDP*; βTP; not shown: StrepII, N-terminal, kept

Assays:
Experiment in all cases: cryo-EM structure; single-particle cryo-EM of the whole F1Fo-ATP synthase purified from A. baumannii membranes via the StrepII tag on β and reconstituted into peptidiscs; three rotational states; buffer A (50 mM Hepes pH 6.8, 150 mM KCl, 5 mM MgCl2) without detergent
[1] = biological target: T2, A. baumannii F1Fo-ATP synthase α-subunit (Acinetobacter baumannii ATCC 17978 …, UniProt A3M142 1-514); conditions: both partners purified
T2 construct: ATP synthase subunit alpha, Acinetobacter baumannii ATCC 17978; Three copies stand in the complex (α3β3γδεab2c10); also called αDP; αE; source: endogenous, A. baumannii ATCC 17978 membranes
T2 sequence (A3M142 whole entry): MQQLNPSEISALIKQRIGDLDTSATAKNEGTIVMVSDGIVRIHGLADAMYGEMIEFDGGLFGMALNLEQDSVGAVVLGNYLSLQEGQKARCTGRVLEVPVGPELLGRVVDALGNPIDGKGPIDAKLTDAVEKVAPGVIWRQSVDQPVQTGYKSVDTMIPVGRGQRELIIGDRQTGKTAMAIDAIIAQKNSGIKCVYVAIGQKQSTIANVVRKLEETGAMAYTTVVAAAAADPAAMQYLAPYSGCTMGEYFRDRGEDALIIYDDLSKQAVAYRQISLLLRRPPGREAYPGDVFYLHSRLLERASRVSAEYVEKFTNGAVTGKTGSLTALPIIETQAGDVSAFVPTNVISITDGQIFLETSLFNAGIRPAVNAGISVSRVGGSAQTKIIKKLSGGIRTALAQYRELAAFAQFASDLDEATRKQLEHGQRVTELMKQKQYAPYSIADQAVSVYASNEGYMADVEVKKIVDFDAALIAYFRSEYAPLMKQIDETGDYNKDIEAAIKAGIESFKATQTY

[2] = biological target: T3, A. baumannii F1Fo-ATP synthase a-subunit (Acinetobacter baumannii ATCC 17978 …, UniProt A3M137 1-291); conditions: both partners purified
T3 construct: ATP synthase subunit a, Acinetobacter baumannii ATCC 17978; S5A; also called proton-conducting a-subunit; source: endogenous, A. baumannii ATCC 17978 membranes
T3 sequence (A3M137 whole entry): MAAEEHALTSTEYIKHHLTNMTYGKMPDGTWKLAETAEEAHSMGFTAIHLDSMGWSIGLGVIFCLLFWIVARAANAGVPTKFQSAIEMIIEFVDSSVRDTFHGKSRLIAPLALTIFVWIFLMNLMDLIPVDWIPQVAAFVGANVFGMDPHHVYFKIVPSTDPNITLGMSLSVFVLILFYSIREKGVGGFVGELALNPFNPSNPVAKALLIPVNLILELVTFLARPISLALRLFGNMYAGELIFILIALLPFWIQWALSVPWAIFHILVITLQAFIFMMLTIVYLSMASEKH

[3] = biological target: the molecule itself
[4] = biological target: T1, A. baumannii F1Fo-ATP synthase γ-subunit; conditions: both partners purified
[5] = biological target: B1; conditions: both partners purified

Binder | binding result [1] | binding result [2] | stoichiometry N [3] | binding result [4] | binding result [5]
B1 | binds | – | – | – | –
A. baumannii F1Fo-ATP synthase c-subunit (c10 ring) (natural protein, UniProt A3M139 1-81, looked up, ATP synthase subunit c, Acinetobacter baumannii ATCC 17978; also called c-ring; source: endogenous, A. baumannii ATCC 17978 membranes; copies: 10) MELTLGLVAIASAILIAFGALGTAIGFGLLGGRFLEAVARQPELAPQLQTRMFLIAGLLDAVPMIGVGIGLFFIFANPFVG | – | binds | 10 | – | –
A. baumannii F1Fo-ATP synthase ε-subunit (natural protein, UniProt A3M145 1-139, looked up, ATP synthase subunit epsilon, Acinetobacter baumannii ATCC 17978; also called subunit ε; source: endogenous, A. baumannii ATCC 17978 membranes) MATMQCDVVSVKESIYSGAVTMLIAKGAGGELGILPGHAPLVTLLQPGPIRVLLENGTEEIVYVSGGVLEVQPHVVTVLADTAIRADNLDEAAILEARKNAEQLLANQKSDLDSAAALAALAETAAQLETIRKIKNRAQ | binds | – | – | binds | binds
